These results are taken from CN114075291A (THE FIRST AFFILIATED HOSPITAL OF NAVAL MEDICAL UNIV OF …, dated 2022).

The target of the test is T1, 人PSMA抗原 (前列腺特异性膜抗原, prostrate specific membrane antigen) (human, UniProt Q04609 1-750).
T1 construct: whole, on cells; it is treated here as the same protein; also called PSMA蛋白
The test can be described thus: FACS, scFv culture supernatant on 293T-PSMA cells, APC anti 6XHis secondary. (Flow cytometry measures light scatter and fluorescence of single cells or particles in a stream.)

T1 sequence (Q04609 whole entry): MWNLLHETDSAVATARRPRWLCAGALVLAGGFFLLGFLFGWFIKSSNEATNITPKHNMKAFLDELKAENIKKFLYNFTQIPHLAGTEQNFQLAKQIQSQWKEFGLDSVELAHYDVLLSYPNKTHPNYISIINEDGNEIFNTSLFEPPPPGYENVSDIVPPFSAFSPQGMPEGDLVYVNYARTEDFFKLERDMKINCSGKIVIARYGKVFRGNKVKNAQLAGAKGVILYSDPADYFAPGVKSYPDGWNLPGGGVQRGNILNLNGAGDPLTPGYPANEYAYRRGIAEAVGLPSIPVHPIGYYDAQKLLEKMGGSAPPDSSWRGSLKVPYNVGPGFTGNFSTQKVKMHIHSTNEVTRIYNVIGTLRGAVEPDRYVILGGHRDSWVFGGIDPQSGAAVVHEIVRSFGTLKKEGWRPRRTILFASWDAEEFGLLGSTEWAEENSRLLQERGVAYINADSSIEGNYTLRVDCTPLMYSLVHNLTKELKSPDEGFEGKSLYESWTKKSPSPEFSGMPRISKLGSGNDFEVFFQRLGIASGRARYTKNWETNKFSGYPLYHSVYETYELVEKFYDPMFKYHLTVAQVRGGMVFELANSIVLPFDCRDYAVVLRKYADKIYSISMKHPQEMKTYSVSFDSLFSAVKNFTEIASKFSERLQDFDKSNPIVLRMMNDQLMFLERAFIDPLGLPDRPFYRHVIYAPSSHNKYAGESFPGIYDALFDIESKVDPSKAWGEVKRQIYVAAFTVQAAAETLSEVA

B1: 抗PSMA单链抗体1 (scFv, V domains shown)
VH: EVQLVESGGGVVQPGRSLRLSCAASGFTFSSYAMHWVRQAPGKGLEWVAVISYDGSNKYYADSVKGRFTISRDNSKNTLYLQMNSLRAEDTAVYYCARDYPLDDILTFPRVGTLDYWGQGTTVTVSS
VL: EIVLTQSPLSLPVTPGEPASISCRSSQSLLHSNGYNYLGWYLQKPGQSPQLLIYLGSNRASGVPDRFSGSGSGTDFTLKISRVEAEDVGVYYCMQALQTGFTFGPGTKVEIK
notes: Soluble scFv from a fully human phage library, made in E. coli TG1 and detected with APC anti 6XHis, so it carries a His tag; also called 抗体HTS0101; HTS0101
As for B1, the binding result was “binds”.
